Assay [1] addresses T1, EphB4 Fc (UniProt P54761 16-539).
T1 chain: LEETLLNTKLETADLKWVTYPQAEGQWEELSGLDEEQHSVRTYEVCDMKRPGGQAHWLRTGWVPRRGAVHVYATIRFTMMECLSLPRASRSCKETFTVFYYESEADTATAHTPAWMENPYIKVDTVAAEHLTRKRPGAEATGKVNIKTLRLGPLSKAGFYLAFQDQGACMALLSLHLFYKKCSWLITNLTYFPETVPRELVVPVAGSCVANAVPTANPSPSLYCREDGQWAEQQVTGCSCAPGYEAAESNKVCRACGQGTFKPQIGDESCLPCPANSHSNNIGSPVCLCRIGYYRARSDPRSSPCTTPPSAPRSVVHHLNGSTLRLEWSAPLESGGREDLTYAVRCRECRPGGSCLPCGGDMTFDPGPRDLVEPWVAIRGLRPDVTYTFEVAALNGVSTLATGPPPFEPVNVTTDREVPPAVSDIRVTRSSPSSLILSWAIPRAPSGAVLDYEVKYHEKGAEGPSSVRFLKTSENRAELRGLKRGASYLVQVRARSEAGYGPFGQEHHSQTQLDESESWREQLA
The experiment in a line: ELISA. In general terms: An ELISA detects its analyte on a solid surface through an enzyme-linked reagent.

Another assay addresses T2, mouse EphB4 AP (mouse, UniProt P54761 16-539).
T2 chain: T1 chain
In words: ELISA.

The target in assay [2] is T1, EphB4 Fc. In words: ELISA; competition with ephrin-B2 AP.

Square brackets hold non-standard residues; d marks the D form. Ends that are not written are not given here. * marks the point of attachment. Biotin = O=C1N[C@H]2[C@H](CS[C@H]2CCCCC(=O)*)N1; Ahx = NCCCCCC(=O)O

Usually Kd stands for the equilibrium constant for the complex coming apart. A high value points to weaker binding. In the case of TNYLFSPNGPIARAW[Ahx]K(Biotin) [biotinylated TNYL-RAW peptide], the Kd with EphB4 Fc [1] turned out to be 2.7 nM; in the assay with mouse EphB4 AP it was 11 nM.

For orientation: IC50 means the concentration at which inhibition is half-maximal. A higher IC50 goes with weaker potency in that assay. Consider TNYLFSPNGPIARAWGSGSK (Fc fusion) [TNYL-RAW fused with human Fc (TNYL-RAW-Fc)], for which the Kd with mouse EphB4 AP came out at 4.7 nM. The same molecule showed an IC50 in the assay with EphB4 Fc [2] of 6.5 nM.

{PEG 40 kDa branched (NHS-glutaryl)}-TNYLFSPNGPIARAW [PEGylated TNYL-RAW (PEG-TNYL-RAW)] registered an equilibrium dissociation constant (Kd) in the assay with EphB4 Fc [1] of 2.9 nM. In the assay with EphB4 Fc [2], this molecule showed a half-inhibitory concentration (IC50) of 24 nM.

Take TNYLFSPNGPIARAW [TNYL-RAW peptide]: the IC50 with EphB4 Fc [2] was determined as 13 nM.

(Values after PMC3237458 (2011).)
